Assays:
[1] = molecular target: RelA-p50 heterodimer as used for SPR (murine) (UniProt Q04207); test: SPR
[2] = molecular target: RelA homodimer as used for SPR (murine) (UniProt Q04207); test: SPR
[3] = molecular target: Oregon Green 488-labelled p50(39–350)-cRel(1–294) heterodimer (murine) (UniProt P25799); test: fluorescence polarisation
[4] = molecular target: Oregon Green 488-labelled RelA(19–321)-p50(39–350) heterodimer (murine) (UniProt Q04207); test: fluorescence polarisation
[5] = molecular target: Oregon Green 488-labelled RelA dimerization domain homodimer (murine) (UniProt Q04207); test: fluorescence polarisation
RelA (Mus musculus) = RelA (Mus musculus) (UniProt Q04207); details: cited from earlier work
[6] = molecular target: labelled p50(39–350) homodimer (murine) (UniProt P25799); test: fluorescence polarisation

In the case of IKBβ(50–359) (domain or fragment), the Kd [1] is reported as 1100 pM, the Kd [2] is reported as 70 pM and the Kd [3] is reported as 920 pM. For the same molecule, the Kd [4] was 890 pM and the Kd [5] was 72 pM.

For RelA (from UniProt Q04207), the Kd (RelA (Mus musculus)) is given as 800000 pM.

With “IKBα(67–287) (from UniProt P25963 67-287) (domain or fragment)” the Kd [2] was 54 pM and the Kd [5] was 280 pM.

B1: (His)6-IKBε(40–364) (domain or fragment)
chain: SSQSGCPQPWRHAPETHKEPEKEDADGERADSTYASSSLTESFPLLERPEAKDPSPPAPGSPLPPAGVLSPQQLEALTYISEDGDTLLHLAVIHEAPSVLFCCLAFLPQEVLDIQNNLYQTALHLAVHLDQPDVVRALVLKGASRILQDQHGDTALHVACRRQNLACACCLLEEQPEPGRQLSHPLDLQLKNWQGLACLHIATLQRNQPLIELLLQNGADIDVQEGTSGKTALHLAVETQERSLVQFLLQAGARVDARMLNGCTPLHLAAGRGLNSISSTLCEAGADSLLLNVEDETPQDLAEDLLSYLPFDDLKISGKPLLCTD
Work on B1 yielded a Kd [6] of 810 pM.

Source: paper PMC6642826
